Substitutions are numbered along the chain they refer to. Numbers in names are those of the source.
B1: rhIFN-γ-1b (wild-type recombinant human interferon-γ-1b) (ligand)
chain: MQDPYVKEAENLKKYFNAGHSDVADNGTLFLGILKNWKEESDRKIMQSQIVSFYFKLFKNFKDDQSIQKSVETIKEDMNVKFFNSNKKKRDDFEKLTNYSVTDLNVQRKAIHELIQVMAELSPAAKTGKRKRSQMLFRGR
notes: also called wt (rhIFN-γ-1b); WT IFN-γ-1b (Actimmune)
B2: Compound 2, mono-mPEG-MAL-20K-rhIFN-γ-1b-M135C (ligand)
chain: B1 chain with M135C
modifications: Cys135 thioether-linked to linear mPEG-maleimide of about 20,000 daltons (mPEG-MAL-20K), succinimide ring closed
notes: also called mPEG-MAL-20K-M135C-IFN-γ; M135C 20K linear
B3: Compound 3, mono-mPEG2-ru-MAL-20K-rhIFN-γ-1b-M135C (ring closed) (ligand)
chain: B1 chain with M135C
modifications: Cys135 thioether-linked to branched mPEG2-maleimide of about 20,000 daltons (mPEG2-MAL-20K), succinimide ring closed
notes: also called mPEG2-MAL-20K-M135C-IFN-γ; M135C 20K branched (RC)
B4: rhIFN-γ-1b-S66C cysteine mutein (ligand)
chain: B1 chain with S66C
notes: also called IFN-γ-S66C; hIFN-γ S66C
B5: rhIFN-γ-1b-N98C cysteine mutein (ligand)
chain: B1 chain with N98C
B6: rhIFN-γ-1b-M135C cysteine mutein (ligand)
chain: B1 chain with M135C
notes: also called IFN-γ-M135C; hIFN-γ M135C
B7: Compound 1, mono-mPEG-MAL-10K-rhIFN-γ-1b-M135C (ligand)
chain: B1 chain with M135C
modifications: Cys135 thioether-linked to linear mPEG-maleimide of about 10,000 daltons (mPEG-MAL-10K), succinimide ring closed
notes: also called mPEG-MAL-10K-M135C-IFN-γ; M135C 10K linear

Tests used:
[1] = molecular target: T1, IFN-γ receptor (IFNGR; IFNGR1 and IFNGR2) on human cells (human) (UniProt P15260); assay: cell-based or functional assay
T1 sequence (looked up) 1: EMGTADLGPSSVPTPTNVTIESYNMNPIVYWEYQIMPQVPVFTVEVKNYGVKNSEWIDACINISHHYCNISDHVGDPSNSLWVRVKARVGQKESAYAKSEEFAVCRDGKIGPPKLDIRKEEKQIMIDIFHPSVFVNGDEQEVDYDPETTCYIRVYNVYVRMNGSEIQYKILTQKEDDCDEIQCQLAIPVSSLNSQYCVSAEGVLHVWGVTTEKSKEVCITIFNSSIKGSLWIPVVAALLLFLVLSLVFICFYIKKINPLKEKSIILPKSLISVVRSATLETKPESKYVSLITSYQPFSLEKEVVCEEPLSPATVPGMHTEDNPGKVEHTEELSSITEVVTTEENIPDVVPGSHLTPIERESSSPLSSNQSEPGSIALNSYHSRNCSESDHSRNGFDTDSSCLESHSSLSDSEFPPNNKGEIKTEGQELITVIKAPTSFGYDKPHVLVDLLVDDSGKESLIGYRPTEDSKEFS
T1 sequence (looked up) 2: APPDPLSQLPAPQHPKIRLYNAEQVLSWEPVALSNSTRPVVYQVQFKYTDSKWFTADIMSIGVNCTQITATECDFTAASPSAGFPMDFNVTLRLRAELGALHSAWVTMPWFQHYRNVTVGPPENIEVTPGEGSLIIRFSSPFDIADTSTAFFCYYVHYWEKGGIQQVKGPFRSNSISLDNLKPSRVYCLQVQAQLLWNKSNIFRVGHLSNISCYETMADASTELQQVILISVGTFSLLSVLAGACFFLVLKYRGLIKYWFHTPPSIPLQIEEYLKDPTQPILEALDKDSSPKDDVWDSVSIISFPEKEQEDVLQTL

[2] = molecular target: T2, IFN-γ receptor (IFNGR; IFNGR1 and IFNGR2) on human cells (human, UniProt P15260 18-489; P38484 22-337); assay: cell-based or functional assay
T2 sequence (looked up) 1: T1 sequence (looked up) 1
T2 sequence (looked up) 2: T1 sequence (looked up) 2

[3] = molecular target: T2, IFN-γ receptor (IFNGR; IFNGR1 and …); assay: cell-based or functional assay; remark: listed apart in the source
[4] = molecular target: T3, IFNγR1 fused to the constant region of the antibody IgG1 (UniProt P15260 18-245, limits assumed); assay: SPR (Biacore, CM5 chip), IFNγR1-IgG1 Fc captured by anti-human IgG, analyte injected
T3 construct: also called IFNGR1; Interferon gamma receptor 1 fused to the Fc region; not shown: constant region (Fc) of IgG1, captured on the chip by an anti-human IgG antibody
T3 sequence (looked up): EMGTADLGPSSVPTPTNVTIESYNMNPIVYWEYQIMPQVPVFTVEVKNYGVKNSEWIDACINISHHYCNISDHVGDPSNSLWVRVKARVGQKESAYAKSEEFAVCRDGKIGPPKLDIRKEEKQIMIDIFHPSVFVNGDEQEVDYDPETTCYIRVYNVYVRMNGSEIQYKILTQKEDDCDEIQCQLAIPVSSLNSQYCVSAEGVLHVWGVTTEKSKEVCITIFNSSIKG
Method: Briefly, the surface of a BAcore™ CM5 sensor chip was coated with anti-human IgG antibody comprising IFNγR1 fused to the constant region of the antibody IgG₁.
Each of the IFN-γ-b protein, the M135C, S98C, and S66C cysteine muteins, and Compounds 1, 2, and 3 were separately injected onto the sensor chip which was coated with IFNγR1. The affinities were measured by determining the kinetic on-rate (kₒₙ) and the kinetic off-rate (koff) rates separately, and the ratio between kₒₙ and koff was used to calculate the Kd values with the results shown in Table 9.

[5] = molecular target: T3, IFNγR1 fused to the constant region of …; assay: SPR (Biacore, CM5 chip), IFNγR1-IgG1 Fc captured by anti-human IgG

Row | Molecule | EC50 (ng/mL)-% pSTAT1, CD14+CD16+ (Intermediate) monocytes of human PBMCs [2] [ng/mL] | EC50 (ng/mL)-% pSTAT1, CD14+CD16- (Classical) monocytes of human PBMCs [2] [ng/mL] | EC50 (ng/mL)-% pSTAT1, CD14loCD16hi (Non-classical) monocytes of human PBMCs [2] [ng/mL] | EC50 (ng/mL)-MFI of pSTAT1, Classical monocytes of human PBMCs [2] [ng/mL] | EC50 (ng/mL)-MFI of pSTAT1, Intermediate monocytes of human PBMCs [2] [ng/mL] | EC50 (ng/mL)-MFI of pSTAT1, Non-classical monocytes of human PBMCs [2] [ng/mL] | EC50 in HT-29 cells, MHCI [3] [ng/mL] | EC50 in HT-29 cells, MHCII [3] [ng/mL] | EC50 in HT-29 cells, PD-L1 [3] [ng/mL] | EC50 in HT-29 cells, pSTAT1 [3] [ng/mL] | Kd [4] [nM] | koff [4] [s⁻¹] | kon [4] [M⁻¹ s⁻¹] | further results
1 | Compound 4, mono-mPEG2-MAL-40K-rhIFN-γ-1b-M135C (from UniProt P01579 24-162) (ligand) |  |  |  |  |  |  |  |  |  |  |  |  |  | EC50 (ng/mL)-% pSTAT1, CD14+CD16+ (Intermediate) monocytes of human PBMCs [1]: 10.1 ng/mL; EC50 (ng/mL)-% pSTAT1, CD14+CD16- (Classical) monocytes of human PBMCs [1]: 32.6 ng/mL; EC50 (ng/mL)-% pSTAT1, CD14loCD16hi (Non-classical) monocytes of human PBMCs [1]: 11.7 ng/mL; EC50 (ng/mL)-MFI of pSTAT1, Classical monocytes of human PBMCs [1]: 152 ng/mL; EC50 (ng/mL)-MFI of pSTAT1, Intermediate monocytes of human PBMCs [1]: 84.2 ng/mL; EC50 (ng/mL)-MFI of pSTAT1, Non-classical monocytes of human PBMCs [1]: 97.5 ng/mL; EC50 in HT-29 cells, MHCI [1]: 0.3 ng/mL; EC50 in HT-29 cells, MHCII [1]: 3.1 ng/mL; EC50 in HT-29 cells, PD-L1 [1]: 3.6 ng/mL; EC50 in HT-29 cells, pSTAT1 [1]: 180 ng/mL
2 | Compound 7, ring-opened mono-mPEG2-MAL-20K-rhIFN-γ-1b-M135C (from UniProt P01579 24-162) (ligand) |  |  |  |  |  |  |  |  |  |  |  |  |  | EC50 in HT-29 cells, MHCI (Compound 7 (1)) [1]: 5.3 ng/mL; EC50 in HT-29 cells, MHCII (Compound 7 (1)) [1]: 150 ng/mL; EC50 in HT-29 cells, PD-L1 (Compound 7 (1)) [1]: 190 ng/mL; EC50 in HT-29 cells, pSTAT1 (Compound 7 (2)) [1]: 969 ng/mL
3 | Compound 6, mono-mPEG2-MAL-20K-rhIFN-γ-1b-N98C (from UniProt P01579 24-162) (ligand) |  |  |  |  |  |  |  |  |  |  |  |  |  | EC50 in HT-29 cells, MHCI [1]: 0.047 ng/mL; EC50 in HT-29 cells, MHCII [1]: 0.86 ng/mL; EC50 in HT-29 cells, PD-L1 [1]: 1.3 ng/mL; EC50 in HT-29 cells, pSTAT1 [1]: 1.2 ng/mL
4 | Compound 5, mono-mPEG2-MAL-20K-rhIFN-γ-1b-S66C (from UniProt P01579 24-162) (ligand) |  |  |  |  |  |  |  |  |  |  |  |  |  | EC50 in HT-29 cells, MHCI [1]: 0.023 ng/mL; EC50 in HT-29 cells, MHCII [1]: 0.27 ng/mL; EC50 in HT-29 cells, PD-L1 [1]: 0.37 ng/mL; EC50 in HT-29 cells, pSTAT1 [1]: 1.3 ng/mL
5 | B1 | 0.015 | 0.035 | 0.018 | 0.3 | 0.24 | 0.26 | 0.079 | 0.53 | 0.69 | 1 | 0.0655 | 0.000701 | 1.07e+07 | 
6 | B2 | 0.179 | 1.45 | 0.367 | 7.62 | 4.28 | 4.57 | 0.076 | 0.7 | 1.2 | 14 | 1.88 | 0.00106 | 637000 | 
7 | B3 | 4.38 | 14 | 4.84 | 64.2 | 32.7 | 35 | 0.17 | 1.8 | 2.2 | 89 | 4.9 | 0.00157 | 321000 | 
8 | B4 |  |  |  |  |  |  |  |  |  | 1.5 | 0.534 | 0.00137 | 2.57e+06 | 
9 | B5 |  |  |  |  |  |  |  |  |  | 1.7 |  |  |  | 
10 | B6 |  |  |  |  |  |  |  |  |  | 1.4 | 0.123 |  |  | 
11 | B7 | 0.084 | 0.222 | 0.106 | 2.16 | 0.85 | 0.99 | 0.099 | 0.83 | 1.1 | 11 | 1.42 | 0.00221 | 1.61e+06 | fold decrease in affinity against IFN-γ-M135C [5]: ~10 fold

Reference: US20250270273A1 (NEKTAR THERAPEUTICS, published 2025)
